24 molecules from patent publication US11834518 (dated 2023) can be followed below.

Where two headings read alike, the source gives them in different places. Square brackets hold non-standard residues; d marks the D form. Ends that are not written are not given here. F2Pmp = N[C@@H](Cc1ccc(C(F)(F)P(=O)(O)O)cc1)C(=O)O; pY = N[C@@H](Cc1ccc(OP(=O)(O)O)cc1)C(=O)O; AEEA = NCCOCCOCC(=O)O

Broadly, the IC50 is the concentration that gives 50% inhibition. Higher therefore signals lower potency. The term Kd denotes the constant that tells how readily two partners part at equilibrium. The low end stands for higher affinity, the high end for lower affinity. By Ki is commonly meant the dissociation constant of the complex between target and ligand, obtained from inhibition or displacement. The low end stands for a stronger hold on the target, the high end for a looser hold on the target.

In experiment [1] the target is T1, STEP32 C/S (human, UniProt P54829).
T1 chain: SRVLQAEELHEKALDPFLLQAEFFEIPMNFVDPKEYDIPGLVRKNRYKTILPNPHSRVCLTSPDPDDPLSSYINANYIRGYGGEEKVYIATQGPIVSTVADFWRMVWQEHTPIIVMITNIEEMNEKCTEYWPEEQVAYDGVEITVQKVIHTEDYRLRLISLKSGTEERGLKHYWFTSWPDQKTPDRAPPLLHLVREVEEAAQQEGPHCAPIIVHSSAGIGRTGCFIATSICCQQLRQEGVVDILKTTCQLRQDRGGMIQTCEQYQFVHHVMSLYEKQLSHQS
Kind of experiment: FP competition.

In experiment [2] the target is T1, STEP32 C/S. Kind of experiment: SPR 25C.
Experiment [3] has as its target T1, STEP32 C/S. Kind of experiment: FP competition.
Experiment [4] concerns the target T1, STEP32 C/S. In words: SPR 25C.
The target in experiment [5] is T1, STEP32 C/S. Kind of experiment: FP competition.
Experiment [6] has as its target T2, STEP32 WT (human, UniProt P54829).
T2 chain: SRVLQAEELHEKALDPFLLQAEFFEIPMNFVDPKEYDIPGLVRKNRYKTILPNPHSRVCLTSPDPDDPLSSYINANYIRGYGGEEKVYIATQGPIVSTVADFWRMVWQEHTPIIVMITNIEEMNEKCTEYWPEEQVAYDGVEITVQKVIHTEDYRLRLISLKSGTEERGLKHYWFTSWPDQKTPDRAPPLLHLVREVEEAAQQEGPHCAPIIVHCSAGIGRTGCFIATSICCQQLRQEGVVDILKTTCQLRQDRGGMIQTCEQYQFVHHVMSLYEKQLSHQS
Kind of experiment: SPR 25C.

Experiment [7] addresses T2, STEP32 WT. Kind of experiment: SPR 25C.
The target of experiment [8] is T1, STEP32 C/S. Kind of experiment: FP competition.
The target in experiment [9] is T1, STEP32 C/S. Kind of experiment: SPR 25C.
For experiment [10], the target named is T1, STEP32 C/S. Kind of experiment: SPR 25C.

In the experiment with STEP32 C/S [1], [AEEA]EGYNV[pY] [p3Ysh-3] registered an IC50 of 2600 nM. Further, the values for the Kd with STEP32 C/S [2] and in the experiment with STEP32 C/S [4] were 60 nM and 53.1 nM, respectively. Moreover, the values for the Ki with STEP32 C/S [3] and in the experiment with STEP32 C/S [5] were 1640 nM and 690 nM, respectively.
As for [AEEA]YV[pY]G [p3Ysh-5], the Ki in the experiment with STEP32 C/S [3] turned out to be 5340 nM.
Turning to GYNV[pY] [p-fin 1], the IC50 in the experiment with STEP32 C/S [1] stood at 8010 nM. Moreover, the Ki with STEP32 C/S [5] turned out to be 1900 nM.
For the molecule EGYNV[F2Pmp] [3Ysh-3-F2Pmp], the Kd with STEP32 WT [6] turned out to be 240 nM; with STEP32 WT [7], 242 nM.
In the case of NGYNV[pY] [p-fin 3], the IC50 with STEP32 C/S [1] stood at 8840 nM. In addition, the Ki with STEP32 C/S [5] was found to be 2160 nM.
As for ATYKEGYAV[pY]G [p3YAla8], the Ki with STEP32 C/S [8] worked out at 2470 nM.
With [AEEA]FS[pY]G [p3Ysh-7], the binding result with STEP32 C/S [9] was “no binding”. The molecule further showed a Ki with STEP32 C/S [3] of 4570 nM.
With ATYKEGANV[pY]G [p3YAla7], the Ki in the experiment with STEP32 C/S [8] amounted to 4450 nM.
In the experiment with STEP32 C/S [8], ATYAEGYNV[pY]G [p3YAla4] displayed a Ki of 2530 nM.
As to EGYNV[pY]E [p-fin 4], in the experiment with STEP32 C/S [1], the IC50 was 1860 nM. Also, the Kd with STEP32 C/S [10] turned out to be 90 nM; with STEP32 C/S [4], 88.4 nM. Further, in the experiment with STEP32 C/S [5], the Ki amounted to 360 nM.
As to ATYKEGYNV[pY]G [p3Y], the figures for the Kd with STEP32 C/S [2] and with STEP32 C/S [4] were 240 nM and 232 nM, respectively. For the same molecule, the Ki worked out at 2820 nM with STEP32 C/S [8] and 2360 nM with STEP32 C/S [3].
In the case of DGYNV[pY] [p-fin 2], in the experiment with STEP32 C/S [1], the IC50 stood at 7150 nM. The molecule further had a Ki in the experiment with STEP32 C/S [5] of 1850 nM.
In the case of EGYNV[pY]GD [p-fin 5], in the experiment with STEP32 C/S [1], the IC50 stood at 3360 nM. Also, in the experiment with STEP32 C/S [5], the Ki turned out to be 760 nM.
Consider [AEEA]NS[pY]G [p3Ysh-4], for which, in the experiment with STEP32 C/S [9], the binding result is reported as “no binding”. The same molecule registered a Ki in the experiment with STEP32 C/S [3] of 13700 nM.
[AEEA]NV[pY]G [p3Ysh-1]: the Kd in the experiment with STEP32 C/S [2] and with STEP32 C/S [4] was 26000 nM throughout. The molecule further registered a Ki in the experiment with STEP32 C/S [3] of 4990 nM.
On to ATAKEGYNV[pY]G [p3YAla3], for which, in the experiment with STEP32 C/S [8], the Ki turned out to be 4810 nM.
[AEEA]YNV[pY]G [p3Ysh-2]: the dissociation constant (Kd) in the experiment with STEP32 C/S [2] and in the experiment with STEP32 C/S [4] was 3960 nM in each case. Moreover, in the experiment with STEP32 C/S [3], the Ki came out at 13100 nM.
For the molecule ATYKEGYNV[F2Pmp]G [3Y-F2Pmp], the values for the Kd with STEP32 WT [6] and with STEP32 WT [7] were 270 nM and 268 nM, respectively.
With [AEEA]FGYNV[pY]G [p3Ysh-6], the Kd with STEP32 C/S [2] and in the experiment with STEP32 C/S [4] was 6130 nM each time. The molecule further yielded a Ki in the experiment with STEP32 C/S [3] of 6960 nM.
Consider ATYKAGYNV[pY]G [p3YAla5], for which the affinity with STEP32 C/S [8], expressed as Ki, was 4140 nM.
The same measure, in the same setting: next, ATYKEGYNA[pY]G [p3YAla9]: 5940 nM.
With ATYKEAYNV[pY]G [p3YAla6], the affinity with STEP32 C/S [8] corresponds to a Ki of 2310 nM.
Still for that read-out and setting: next, ATYKEGYNV[pY]A [p3YAla10]: 2710 nM.
In turn, AAYKEGYNV[pY]G [p3YAla2] had a Ki in the experiment with STEP32 C/S [8] of 1620 nM.
